The values that follow come from publication PMC9331606 (2022).

Test [1] deals with NanoLuciferase-tagged rat promyelocytic leukemia protein (rPML). Kind of test: NanoBRET. The conditions noted are these: HEK293T cells transfected 24 h; 4 h incubation with Halo ligand; detection time 5 s at 618 nm and 448 nm; parent: est. 2.8; read off a plot. For orientation: In BRET a luciferase serves as donor, and the signal depends on an acceptor being close.
Test [2] concerns the target NanoLuciferase-tagged human promyelocytic leukemia protein (hPML) (UniProt P29590). Kind of test: NanoBRET. To be noted: HEK293T cells transfected 24 h; 4 h incubation with Halo ligand; detection time 5 s at 618 nm and 448 nm; parent: est. 23; read off a plot.

NanoLuciferase-tagged human promyelocytic leukemia protein (hPML), sequence (P29590 whole entry): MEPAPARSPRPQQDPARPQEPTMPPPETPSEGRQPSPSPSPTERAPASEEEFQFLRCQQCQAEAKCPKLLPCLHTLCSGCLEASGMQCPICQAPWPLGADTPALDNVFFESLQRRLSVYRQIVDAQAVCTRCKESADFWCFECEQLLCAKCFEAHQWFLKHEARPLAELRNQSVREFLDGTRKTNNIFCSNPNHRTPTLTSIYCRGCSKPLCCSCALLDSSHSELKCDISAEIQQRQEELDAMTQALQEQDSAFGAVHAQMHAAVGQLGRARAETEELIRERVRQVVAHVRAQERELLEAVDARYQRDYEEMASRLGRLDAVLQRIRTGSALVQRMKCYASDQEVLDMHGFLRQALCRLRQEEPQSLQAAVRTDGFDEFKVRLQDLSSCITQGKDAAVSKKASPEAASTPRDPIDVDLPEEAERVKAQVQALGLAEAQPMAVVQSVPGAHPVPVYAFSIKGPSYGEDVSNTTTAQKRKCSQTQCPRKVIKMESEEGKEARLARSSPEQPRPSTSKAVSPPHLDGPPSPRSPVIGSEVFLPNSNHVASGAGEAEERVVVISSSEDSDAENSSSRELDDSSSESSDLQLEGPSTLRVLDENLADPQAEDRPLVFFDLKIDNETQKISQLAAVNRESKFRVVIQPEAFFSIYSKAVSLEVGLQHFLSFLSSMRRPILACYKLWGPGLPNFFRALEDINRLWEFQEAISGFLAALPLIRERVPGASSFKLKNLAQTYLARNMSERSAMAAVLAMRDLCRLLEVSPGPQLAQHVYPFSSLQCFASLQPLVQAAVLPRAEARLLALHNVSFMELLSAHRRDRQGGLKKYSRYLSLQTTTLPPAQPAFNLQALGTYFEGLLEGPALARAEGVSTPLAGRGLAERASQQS

On to “Halo-tagged human cytomegalovirus immediate early 1 protein (hIE1) (from UniProt P13202) L174P”, for which the response in test [1] was determined as 7 mBU.

With “Halo-tagged human cytomegalovirus immediate early 1 protein (hIE1) (from UniProt P13202) hIE1_rH1”, the response in test [2] is 1.6 mBU; in test [1], 5.5 mBU.

For “Halo-tagged human cytomegalovirus immediate early 1 protein (hIE1) (from UniProt P13202) hIE1_rH10/11”, the response was 2.6 mBU in test [2] and 6.5 mBU in test [1].

Turning to “Halo-tagged human cytomegalovirus immediate early 1 protein (hIE1) (from UniProt P13202) hIE1_rH4”, the response in test [2] is 4.1 mBU; in test [1], 4 mBU.

As for “Halo-tagged human cytomegalovirus immediate early 1 protein (hIE1) (from UniProt P13202) cc172-176”, the response in test [2] is 24 mBU.

For “Halo-tagged human cytomegalovirus immediate early 1 protein (hIE1) (from UniProt P13202) hIE1_rH1/2”, the values for the response in test [2] and in test [1] were 3.7 mBU and 6.5 mBU, respectively.

Turning to “Halo-tagged human cytomegalovirus immediate early 1 protein (hIE1) (from UniProt P13202) hIE1_rH8”, the results for the response in test [2] and in test [1] were 2.2 mBU and 6.5 mBU, respectively.
